One molecule from US20250144141A1 (CDR LIFE, published 2025) can be followed below.

Assay [1] deals with T1, HLA-A*02:01/MAGE-A4 complex (human, UniProt P04439 25-299 at identity 0.94); P61769 21-119).
T1 construct: Coated on ELISA plates and on a streptavidin SPR chip; a biotin tag is not described; also called HLA-A2/MAGE-A4 complex; pMHC-MAGE-A4
Put plainly: not stated in the sentence (SPR is described in Example 7).

Assay [2] deals with CD3 heterodimer (Acro Biosystems) (UniProt P07766 23-126). In words: not stated in the sentence (SPR on a CD3 heterodimer chip is described in Example 7).
Sequence of CD3 heterodimer (Acro Biosystems) (P07766 23-126, one chain of several): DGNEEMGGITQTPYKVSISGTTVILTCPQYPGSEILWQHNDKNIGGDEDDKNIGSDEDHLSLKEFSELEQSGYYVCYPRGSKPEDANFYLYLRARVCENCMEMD

B1: M1048 (bispecific antibody)
chain 1: EVQLVESGGGLVQPGGSLRLSCAASGFTFSTYAMNWVRQAPGKGLEWVGRIRSKYNNYATYYADSVKGRFTISRDDSKNTLYLQMNSLRAEDTAVYYCVRHGNFGDSYVSWFAYWGQGTLVTVSSASTKGPSVFPLAPSSKSTSGGTAALGCLVKDYFPEPVTVSWNSGALTSGVHTFPAVLQSSGLYSLSSVVTVPSSSLGTQTYICNVNHKPSNTKVDKRVEPKSCGGGGSSYELTQPPSVSVSPGQTASITCTADTLSRSYASWYQQKPGQSPVLVIYRDTSRPSGIPERFSGSNSGNTATLTISGTQAMDEADYYCATRPSSGSNFQLFGGGTKLTVLGGGGGGSGGGGSGGGGSGGGGSESQVLESGGGSVQPGGSLRLSCTVSGFSLSNYAMSWVRQAPGKGLEYIGIVSSGGTTYYASWAKGRFTISKDTSKNTVYLQMNSLRAEDTASYYCAKDLYYGPTTYSAFNLWGQGTSVTVSS
chain 2: QAVVTQEPSLTVSPGGTVTLTCGSSTGAVTTSNYANWVQQKPGKSPRGLIGGTNKRAPGVPARFSGSLLGGKAALTISGAQPEDEADYYCALWYSNHWVFGGGTKLTVLGQPKAAPSVTLFPPSSEELQANKATLVCLISDFYPGAVTVAWKADSSPVKAGVETTTPSKQSNNKYAASSYLSLTPEQWKSHRSYSCQVTHEGSTVEKTVAPTECSGGGGSSYELTQPPSVSVSPGQTASITCTADTLSRSYASWYQQKPGQSPVLVIYRDTSRPSGIPERFSGSNSGNTATLTISGTQAMDEADYYCATRPSSGSNFQLFGGGTKLTVLGGGGGGSGGGGSGGGGSGGGGSESQVLESGGGSVQPGGSLRLSCTVSGFSLSNYAMSWVRQAPGKGLEYIGIVSSGGTTYYASWAKGRFTISKDTSKNTVYLQMNSLRAEDTASYYCAKDLYYGPTTYSAFNLWGQGTSVTVSS
Take B1: the dissociation constant Kd in assay [1] stood at 0.25 nM; in assay [2], 10 nM.

The Kd is the equilibrium constant for the complex coming apart. Read a low Kd as tighter binding.
